In the supplement of paper PMC10724198:
± gives the standard deviation of the averaged measurements.

system: Saccharomyces cerevisiae; test: protein stability index of tFT-peptide fusion (C-terminal peptide) (PSI (0-1 scale)); higher = more stable (slower turnover); conditions: genetic background: wild type; temperature: 30 C
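Note: PSI is a weighted mean of sequencing reads over stability bins, variants kept only with over 10 reads, mCherry proximal and sfGFP distal, peptide attached via GGGS linker.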

Sequence	protein stability index
VLYGRFSLLGWC	0.595 ± 0.042
TVRKMEKKKDGG	0.663 ± 0.012
VLVVFVGDSSKR	0.662 ± 0.039
PRIFPDPVFPSL	0.688 ± 0.046
CVPLSAIFSAFT	0.77 ± 0.022
RRGRNGGKADLR	0.657 ± 0.0073
SLSSVAYAIIIL	0.561 ± 0.021
PRPPPSQATLSP	0.637 ± 0.052
VSLCYGGGFWGR	0.698 ± 0.018
LPPRPLPPPSRT	0.7 ± 0.076
CTYHLPFYNVLF	0.849 ± 0.19
LCLFGGLVAFWC	0.585 ± 0.027
VAVIGAPPGNSR	0.672 ± 0.029
TLSPAPPPPLPP	0.636 ± 0.093
CVGPGGACVRSG	0.6894 ± 0.0017
PSNNHRPPGCAD	0.685 ± 0.023
FLLSILPFISFC	0.527 ± 0.1
NTPNRNFTYTEN	0.685 ± 0.038
KWNITKEQENSR	0.681 ± 0.018
PPLLDASPAPIL	0.689 ± 0.024
PRLPPPSPPPLP	0.735 ± 0.01
IMKRNKKIKREI	0.711 ± 0.024
ISVLSIFVDSFV	0.528 ± 0.0062
SGCLGGGRGGWG	0.657 ± 0.013
ATIYTAATTYHV	0.71342 ± 0.00066
GGAGGNLAPGRG	0.638 ± 0.026

Sequence	protein stability index
GLPSHPAPPSTN	0.657 ± 0.11
RPTLPGGSPYYS	0.75 ± 0.05
LRCPLMYDIFYN	0.726 ± 0.074
RSGGDGCRALSV	0.708 ± 0.064
WGAGRGGAFFSG	0.6576 ± 0.0062
GRRCKNMKKMSW	0.674 ± 0.046
CPNFYPARNSRL	0.696 ± 0.2
GERRREKRKNSG	0.726 ± 0.046
RKGFMQRHDTLD	0.6749 ± 0.0019
PSRAPQGRADNT	0.69 ± 0.11
ARSAGITSPSKD	0.788 ± 0.12
ATYTTQQLPNYH	0.685 ± 0.011
RPPPPSPRPTRR	0.755 ± 0.032
ESIEVGTGDWVG	0.653 ± 0.013
GRKCWDRSGWTV	0.771 ± 0.014
FFFYFPSLNSFV	0.696 ± 0.073
IEVSRRDLRIHL	0.6949 ± 0.0032
SSPYPGNVVTST	0.7133 ± 0.0015
LTCRGESYAGLI	0.651 ± 0.014
AIGPLTCFFAFL	0.695 ± 0.079
FSASLLWFKEFW	0.685 ± 0.024
PLPPLPPTRPLP	0.688 ± 0.026
RPSTRARPKPTP	0.693 ± 0.0086
GSLASRGVFVVV	0.614 ± 0.042
PLSYRPPSRFYF	0.587 ± 0.061
VQSLCGDCGCCL	0.735 ± 0.04

Sequence	protein stability index
LAVILLVLPGND	0.563 ± 0.011
GRNFSHKKRGKY	0.685 ± 0.03
SFAPPPPPPLPS	0.686 ± 0.025
YTPSGHKRRMYV	0.642 ± 0.064
PPPPPLSPHSPP	0.699 ± 0.023
PAAPPHGFPPPR	0.6341 ± 0.0046
QFTFPPGTSAPV	0.66 ± 0.032
TQLEHQRESKSI	0.672 ± 0.021
GGGGGGLLDVGV	0.685 ± 0.027
LSLVDFSTLWFF	0.611 ± 0.08
DRLCAAPHYGTH	0.599 ± 0.045
PPPPLPSPAPRP	0.735 ± 0.032
LRIQKIVSGALM	0.707 ± 0.01
KHGSKEAHKNEN	0.695 ± 0.015
PAPPPPPLPPPP	0.615 ± 0.041
KKEKDKTINKQK	0.697 ± 0.067
GSWIGGSVIGGQ	0.763 ± 0.073
RVPPGSPYPPLL	0.7319 ± 0.0028
FLLSFPCAHFLL	0.598 ± 0.056
GGVGGCARVWPR	0.654 ± 0.061
RLTRRSCLFSIT	0.785 ± 0.056
RTRSKVSVSFND	0.728 ± 0.043
VFAPWLFLFGFF	0.521 ± 0.017
FCFLSALTCLCA	0.589 ± 0.021
KREEKKTKRKKK	0.712 ± 0.048
PPPPRAPVPLPV	0.575 ± 0.022

Sequence	protein stability index
GPFDVLPEPNPG	0.6348 ± 0.0037
ASSGGCVPTLPL	0.68 ± 0.0078
SKLTKQQKRTKS	0.665 ± 0.055
PFPPSAHPPPPH	0.795 ± 0.085
PPYPCRRPPPPP	0.647 ± 0.033
RDPSIVDHTVVT	0.735 ± 0.041
TCLIFTCVLKFR	0.485 ± 0.098
LLIYIPLFEWAR	0.526 ± 0.028
SVGIWSYGLCWF	0.753 ± 0.055
GNTQSIEQALLV	0.752 ± 0.028
FLTPPIPLFSRL	0.783 ± 0.058
SRGAIGGSACFR	0.652 ± 0.037
GIGFHSREIGER	0.66 ± 0.055
CAITAPINRSWN	0.702 ± 0.009
CGSVERAEKGHI	0.662 ± 0.025
LNSCLIVDEPDI	0.8026 ± 0.0048
LLGKVAYFFMFG	0.631 ± 0.025
TFCPPSRYRPRA	0.709 ± 0.008
DHLPSPRPRPPP	0.7295 ± 0.0012
KGKRQNIERCRK	0.644 ± 0.099
VAAFGGGATNGV	0.736 ± 0.029
RCRGPVYIPPGT	0.654 ± 0.027
GGEGRGRVWEIS	0.686 ± 0.068
